T1: monkey TIM-3 on CHOK1 stable cell line (CHOK1-cTIM-3) (monkey)
T1 chain: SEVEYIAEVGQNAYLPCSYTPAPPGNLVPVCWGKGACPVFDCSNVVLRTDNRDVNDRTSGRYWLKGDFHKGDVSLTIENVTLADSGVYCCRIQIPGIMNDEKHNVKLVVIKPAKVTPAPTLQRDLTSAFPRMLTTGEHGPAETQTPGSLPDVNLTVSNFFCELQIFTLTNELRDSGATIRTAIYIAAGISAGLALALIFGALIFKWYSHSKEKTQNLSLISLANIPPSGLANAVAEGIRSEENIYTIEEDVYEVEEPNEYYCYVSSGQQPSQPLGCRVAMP

T2: human TIM-3 extracellular domain protein with hFc tag (hTIM-3-hFc) (human, UniProt Q8TDQ0 22-200)
T2 construct: not shown: human IgG Fc fragment (hFc) of the pCpC vector
T2 sequence: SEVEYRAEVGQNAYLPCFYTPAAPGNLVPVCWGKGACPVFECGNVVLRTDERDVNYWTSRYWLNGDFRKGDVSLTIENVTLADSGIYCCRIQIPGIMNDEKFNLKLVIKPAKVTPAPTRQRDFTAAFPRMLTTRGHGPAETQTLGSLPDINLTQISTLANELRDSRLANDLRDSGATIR

T3: murine TIM-3 extracellular domain protein with hFc tag (mTIM-3-hFc) (mouse, UniProt Q8VIM0 29-191)
T3 construct: also called mouse TIM-3 extracellular domain protein; not shown: human IgG Fc fragment (hFc) of the pCpC vector
T3 chain: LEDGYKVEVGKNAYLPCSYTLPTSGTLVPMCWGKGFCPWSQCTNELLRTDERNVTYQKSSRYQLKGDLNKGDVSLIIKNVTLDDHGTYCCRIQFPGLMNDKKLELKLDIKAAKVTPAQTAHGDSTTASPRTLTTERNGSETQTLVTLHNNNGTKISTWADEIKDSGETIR

T4: monkey TIM-3 extracellular domain protein with hFc tag (cTIM-3-hFc) (monkey)
T4 construct: not shown: human IgG Fc fragment (hFc) of the pCpC vector
T4 chain: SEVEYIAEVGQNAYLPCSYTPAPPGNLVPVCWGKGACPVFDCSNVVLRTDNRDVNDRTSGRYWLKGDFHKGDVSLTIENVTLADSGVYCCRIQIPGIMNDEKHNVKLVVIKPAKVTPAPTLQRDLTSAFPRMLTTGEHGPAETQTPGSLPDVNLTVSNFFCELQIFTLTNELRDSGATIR


Key:
[1] = target: T1, monkey TIM-3 on CHOK1 stable cell line …; assay: FACS, CHOK1-cTIM-3 cells, 0 nM antibody
[2] = target: T2, human TIM-3 extracellular domain …; assay: ELISA, coated human TIM-3 ECD protein, 0.6667 nM antibody
[3] = target: T3, murine TIM-3 extracellular domain …; assay: ELISA, coated mouse TIM-3 ECD protein, 0.0001 nM antibody
[4] = target: T3, murine TIM-3 extracellular domain …; assay: ELISA, coated mouse TIM-3 ECD protein, 66.667 nM antibody
[5] = target: T4, monkey TIM-3 extracellular domain …; assay: ELISA, coated monkey TIM-3 ECD protein, 66.667 nM antibody

Row | Mean fluorescence intensity [1] | OD450 [2] | OD450 [3] | OD450 [4] | OD450 [5] | Binder
1 | 2.9 | 3.11 | 0.23 | 1.38 | 3.39 | 34B6D8 fully human TIM-3 antibody (human IgG4, kappa) (antibody, V domains shown) VH: EVQLVESGGGLVQPGGSLRLSCAASGFTFSTYWMTWVRQAPGKRLEWVANIKQGGGDKYYVDSVKGRFTISTDNAKNSLYLQMNSLRAEDTAVYYCARGSNWFDPWGQGTLVTVSS VL: EIVMTQSPATLSMSPGERATLSCRASQSVYDNLAWYQQKPGQAPRLLIYGASTRATGIPARFSGSGSGTEFTLTISSLQSEDFALYYCQQYTHWPITFGQGTRLEIK
2 | 3 | 3.01 | 0.23 | 1.28 | 3.38 | 39E5H1 fully human TIM-3 antibody (human IgG4, kappa) (antibody, V domains shown) VH: EVQLVESGGGLVQPGGSLRLSCAASGFTFSSYWMSWVRQAPGKGLEWVANIKRGGSERYYVDSVKGRFTISGDNAKNSVYLQMNSLRAEDTAVYYCARGSNWFDPWGQGTLVTVSS VL: ETVMTQSPAILSVSPGERATLSCRASQSVYSNLAWYQQKLGQAPRLLIYDASTRATGIPARFSGSGSGTEFTLTISSLQSEDFAVYYCQQYNNWPITFGQGTRLEIK

Source: patent publication US20220033501A1 (SHANGHAI PHARMAEXPLORER, published 2022)
